The nature of assay [1]: 2OST activity: 2-O sulfated products detected by LCMS after lyase digestion. In kind it is biochemical. The conditions noted are these: procedures of Example 3; expected. On the procedure: A study was conducted in accordance with embodiments of the present disclosure to confirm 2OST activity of enzymes comprising the amino acid sequence of SEQ ID NO: 14 or SEQ ID NO: 16 by detecting the presence of 2-O sulfated polysaccharide products formed as a result of their sulfotransfer reaction, using a similar procedure as in Example 2, except that the sulfo acceptor polysaccharide was commercial heparin in which the 2-O sulfate groups had been selectively removed by chemical means (product DSH001/2, available from Galen Laboratory Supplies) and analysis of each of the digested samples containing sulfated products was conducted using mass spectrometry, coupled with SAX-based high performance liquid chromatography (LCMS).
Disaccharides obtained by digesting the 2-O sulfated products using the carbon-oxygen lyases having the amino acid sequence of SEQ ID NO: 30, SEQ ID NO: 31, and SEQ ID NO: 32 and according to the procedure described above in Example 2 were quantified on a Shimadzu LCMS-8050 Triple Quadrupole Liquid Chromatograph Mass Spectrometer. 100 ng of each of the digested samples, diluted in 10 mM ammonium bicarbonate (pH 10). The disaccharides were separated on a Thermo Hypercarb HPLC column (100×2.1 mm, 5 μm). […]

A short description of assay [2]: 3OST activity: 3-O sulfated products detected by LCMS after lyase digestion. Format: biochemical. To be noted: for 3OST activity: N,2,3,6-HS products by MS and/or NMR: procedures of Example 5 and/or Example 6, expected; for abundance of 3-O sulfation in product: relative to the commercial heparin standard. On the procedure:
A study was conducted in accordance with embodiments of the present disclosure to confirm 3OST activity of enzymes comprising the amino acid sequence of SEQ ID NO: 24, SEQ ID NO: 26, or SEQ ID NO: 28 by detecting the presence of 3-O sulfated polysaccharide products as a result of their sulfotransfer reaction, using a reaction, using a similar LCMS procedure as in Example 3, except that the sulfo acceptor polysaccharide was commercially-available heparin (CAS code: 9041-08-1, available from Millipore Sigma). Even though the unmodified heparin contains ˜3.5% (w/w) of 3-O sulfated glucosamine residues, about ˜60% of the glucosamine residues are N,6-sulfated and are adjacent to a 2-O sulfated hexuronic acid residue, as in Formula X. Consequently, these N,6-sulfated glucosamine residues can still be 3-O sulfated.

B1: SEQ ID NO: 41: mutant of the human 2OST enzyme carrying the SEQ ID NO: 14 mutations (protein)
chain: MDEEEDMVIIYNRVPHTASTSFTNIAYDLCAKNKYHVLHINTTKNNPVMSLQDQVRFVKNITSWKEMKPGFYHGHVSYLDFAKFGVKKKPIYINVIRDPIERLVSYYYHLRFGDDYRPGLRRRKQGDKKTFDECVAEGGSDCAPEKLWLQIPFFCGHSSECWNVGSRWAMDQAKYNLINEYFLVGVTEELEDFIMLLEAALPRFFRGATELYRTGKKSHLHKTTEKKLPTKQTIAKLQQSDIWKMENEFYEFALEQFQFIRAHAVREKDGDLYILAQNFFYEKIYPKSN
modifications: Amino acid sequence encoding for engineered arylsulfate-dependent 2-O-sulfotransferase variant 3
Consider B1, for which the “2OST activity: N,2-HS products by MS” value in assay [1] is recorded as “confirm the presence of N,2-HS products”.

B2: SEQ ID NO: 52: mutant of isoform 1 of the pig 3OST enzyme, SEQ ID NO: 24 mutations (protein)
chain: MGVAPNGSAQQLPQTIIIGVGHGGTRALLEMLSLHPDVAAAENEVHFFDWEEHYSHGLGWYLSQMPFSWPHQLTVEKTHSYFTSPKVPERVYSMNPSIRLLLILRDPSERVLSLGTHLFYVHMQKHKPYPSIEEFLVRDGRLNVDYTGLNRSLYHVHMQNWLRFFPLRHIHIVDGDRLIRDPFPEIQKVERFLKLSPQINASNFYFNKTKGFYCLRDSGRDRCLHESKGRAHPQVDPKLLNKLHEYFHEPNKKFFELVGRTFDWH
modifications: Amino acid sequence encoding for engineered arylsulfate-dependent 3-O-sulfotransferase variant 5
Regarding B2, in assay [2], the “3OST activity: N,2,3,6-HS products by MS and/or NMR” value (“3OST activity: N,2,3,6-HS products” below) is “confirm the presence of N,2,3,6-HS products”.

B3: SEQ ID NO: 54: mutant of isoform 1 of the pig 3OST enzyme, SEQ ID NO: 28 mutations (protein)
chain: MGVAPNGSAQQLPQTIIIGVGHGGTRALLEMLSLHPDVAAAENEVHFFDWEEHYSHGLGWYLSQMPFSWPHQLTVEKTHSYFTSPKVPERVYSMNPSIRLLLILRDPSERVLSLGTHLFYVHMQKHKPYPSIEEFLVRDGRLNVDYTGLNRSLYHVHMQNWLRFFPLRHIHIVDGDRLIRDPFPEIQKVERFLKLSPQINASNFYFNKTKGFYCLRDSGRDRCLHESKGRAHPQVDPKLLNKLHEYFHEPNKKFFELVGRTFDWH
modifications: Amino acid sequence encoding for engineered arylsulfate-dependent 3-O-sulfotransferase variant 7
For the molecule B3, the “3OST activity: N,2,3,6-HS products” value in assay [2] is on record as “confirm the presence of N,2,3,6-HS products”.

B4: SEQ ID NO: 53: mutant of isoform 1 of the pig 3OST enzyme, SEQ ID NO: 26 mutations (protein)
chain: MGVAPNGSAQQLPQTIIIGVGHGGTRALLEMLSLHPDVAAAENEVHFFDWEEHYSHGLGWYLSQMPFSWPHQLTVEKTHSYFTSPKVPERVYSMNPSIRLLLILRDPSERVLSAYTHMFYNHMQKHKPYPSIEEFLVRDGRLNVDYTGLNRSLYHVHMQNWLRFFPLRHIHIVDGDRLIRDPFPEIQKVERFLKLSPQINASNFYFNKTKGFYCLRDSGRDRCLHESKGRAHPQVDPKLLNKLHEYFHEPNKKFFELVGRTFDWH
modifications: Amino acid sequence encoding for engineered arylsulfate-dependent 3-O-sulfotransferase variant 6
Turning to B4, in assay [2], the “3OST activity: N,2,3,6-HS products” value is listed as “confirm the presence of N,2,3,6-HS products”.

B5: SEQ ID NO: 28: engineered aryl sulfate-dependent 3OST enzyme, mutant of isoform 1 of the human 3OST enzyme (protein)
chain: MGTASNGSTQQLPQTIIIGVGHGGTRALLEMLSLHPDVAAAENEVHFFDWEEHYSQGLGWYLTQMPFSSPHQLTVEKTHSYFTSPKVPERIHSMNPTIRLLLILRDPSERVLSLGTHLLYVHLQKHKPYPPIEDLLMRDGRLNLDYTGLNRSLYHAHMLNWLRFFPLGHIHIVDGDRLIRDPFPEIQKVERFLKLSPQINASNFYFNKTKGFYCLRDSGKDRCLHESKGRAHPQVDPKLLDKLHEYFHEPNKKFFKLVGRTFDWH
modifications: Amino acid sequence encoding for engineered arylsulfate-dependent 3-O-sulfotransferase variant 3
notes: engineered aryl sulfate-dependent 3OST enzyme, mutant of isoform 1 of the human 3OST enzyme
As to B5, the “3OST activity with PNS” value in assay [2] (PNS as aryl sulfate compound) was “not active”. Moreover, the “abundance of 3-O sulfation in product” value in assay [2] was “higher abundance of 3-O sulfation”.

B6: SEQ ID NO: 24: engineered aryl sulfate-dependent 3OST enzyme, mutant of isoform 1 of the human 3OST enzyme (protein)
chain: MGTASNGSTQQLPQTIIIGVGHGGTRALLEMLSLHPDVAAAENEVHFFDWEEHYSQGLGWYLTQMPFSSPHQLTVEKTHSYFTSPKVPERIHSMNPTIRLLLILRDPSERVLSAYTHMLYNHLQKHKPYPPIEDLLMRDGRLNLDYVGLNRSLYHAHMLNWLRFFPLGHIHIVDGDRLIRDPFPEIQKVERFLKLSPQINASNFYFNKTKGFYCLRDSGKDRCLHESKGRAHPQVDPKLLDKLHEYFHEPNKKFFKLVGRTFDWH
modifications: Amino acid sequence encoding for engineered arylsulfate-dependent 3-O-sulfotransferase variant 1
notes: as for B5
As for B6, the “abundance of 3-O sulfation in product” value in assay [2] is recorded as “higher abundance of 3-O sulfation”.

B7: SEQ ID NO: 56: full-length mutant of isoform 5 of the mouse 3OST enzyme, SEQ ID NO: 24 mutations (protein)
chain: MLFKQQVWLRQKLLVLGSLAVGSLLYLVARVGSLDRLQPICPVESRFGGAHNQAELPLRALQFKRGLLHEFRKGNSSKEQVHLHDLVQQLPKAIIIGVGHGGTRALLEMLNLHPAVVKASQEIHFFDNDENYAKGIEWYRKKMPFSYPQQITIEKSHSYFITEEVPERIYKMNSSIKLLIIVREPTTRAISAYTHMLEGKERKNKTYYKFEKLAIDPNTCEVNTKYVGVRTSIYTKHLERWLKYFPIEQFHIVDGDRLITEPLPELQLVEKFLNLPPRISQYNLYFNATRGFYCLRFNIIFNKCLAGSKGRIHPEVDPSVITKLRKFFHPFNQKFYQITGRTLNWP
modifications: Amino acid sequence encoding for engineered arylsulfate-dependent 3-O-sulfotransferase variant 8
B7: the “3OST activity: N,2,3,6-HS products” value in assay [2] is recorded as “confirm the presence of N,2,3,6-HS products”.

B8: SEQ ID NO: 58: full-length mutant of isoform 5 of the mouse 3OST enzyme, SEQ ID NO: 28 mutations (protein)
chain: MLFKQQVWLRQKLLVLGSLAVGSLLYLVARVGSLDRLQPICPVESRFGGAHNQAELPLRALQFKRGLLHEFRKGNSSKEQVHLHDLVQQLPKAIIIGVGHGGTRALLEMLNLHPAVVKASQEIHFFDNDENYAKGIEWYRKKMPFSYPQQITIEKSHSYFITEEVPERIYKMNSSIKLLIIVREPTTRAISLGTHLLEVKERKNKTYYKFEKLAIDPNTCEVNTKYTGVRTSIYTKHLERWLKYFPIEQFHIVDGDRLITEPLPELQLVEKFLNLPPRISQYNLYFNATRGFYCLRFNIIFNKCLAGSKGRIHPEVDPSVITKLRKFFHPFNQKFYQITGRTLNWP
modifications: Amino acid sequence encoding for engineered arylsulfate-dependent 3-O-sulfotransferase variant 10
B8: the “3OST activity: N,2,3,6-HS products” value in assay [2] is on record as “confirm the presence of N,2,3,6-HS products”.

B9: SEQ ID NO: 57: full-length mutant of isoform 5 of the mouse 3OST enzyme, SEQ ID NO: 26 mutations (protein)
chain: MLFKQQVWLRQKLLVLGSLAVGSLLYLVARVGSLDRLQPICPVESRFGGAHNQAELPLRALQFKRGLLHEFRKGNSSKEQVHLHDLVQQLPKAIIIGVGHGGTRALLEMLNLHPAVVKASQEIHFFDNDENYAKGIEWYRKKMPFSYPQQITIEKSHSYFITEEVPERIYKMNSSIKLLIIVREPTTRAISAYTHMLEGKERKNKTYYKFEKLAIDPNTCEVNTKYTGVRTSIYTKHLERWLKYFPIEQFHIVDGDRLITEPLPELQLVEKFLNLPPRISQYNLYFNATRGFYCLRFNIIFNKCLAGSKGRIHPEVDPSVITKLRKFFHPFNQKFYQITGRTLNWP
modifications: Amino acid sequence encoding for engineered arylsulfate-dependent 3-O-sulfotransferase variant 9
On to B9, for which the “3OST activity: N,2,3,6-HS products” value in assay [2] was “confirm the presence of N,2,3,6-HS products”.

These data come from US11629364B2, “Methods for synthesizing anticoagulant polysaccharides” (OPTIMVIA, LLC, priority 2019, dated 2023).
